According to the supplement of paper PMC7877785:
± gives the uncertainty stated by the source.

Experiment: self-splicing fitness, log relative to wild type (ln ratio); higher = more splicing; Tetrahymena group I intron in knt gene, E. coli kanamycin selection, DiMSum; sequences stand for … in CUCUCU…GGAGGGAAAAGUUAUCAGGCAUGCACCUGGUAGCUAGUCUUUAAACCAAUAGAUUGCAUCGGUUUAAAAGGCAAGACCGUCAAAUUGCGGGAAAGGGGUCAACAGCCGUUCAGUACCAAGUCUCAGGGGAAACUUUGAGAUGGCCUUGCAAAGGGUAUGGUAAUAAGCUGACGGACAUGGUCCUAACCACGCAGCCAAGUCCUAAGUCAACAGAUCUUCUGUUGAUAUGGAUGCAGUUCACAGACUAAAUGUCGGUCGGGGAAGAUGUAUUCUUCUCAUAAGAUAUAGUCGGACCUCUCCUUAAUGGGAGCUAGCGGAUGAAGUGAUGCAACACUGGAGCCGCUGGGAACUAAUUUGUAUGCGAAAGUAUAUUGAUUAGUUUUGGAGUACUCGUGGUCG
Summary of the method: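 Pooled colonies went to amplicon sequencing on an Illumina HiSeq 2500 after six replicate transformations. The plates were LB agar with 100 μg/mL carbenicillin, 50 μM IPTG and 0.2% rhamnose, with or without 25 μg/mL kanamycin, incubated overnight at 37°C or 30°C. The E. coli BL21(DE3) library had all eight P1ex-region intron nucleotides randomised, the intron placed in the knt kanamycin-resistance gene on pET-22b(+). DiMSum fitness is the error-weighted combination of replicate fold changes, kanamycin against none, normalised to wild type.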

Row | Sequence | self-splicing fitness (ln) (30 °C) | self-splicing fitness (ln) (37 °C)
1 | UGUUAGCAAUAUUACGCUUG | -2.03 ± 0.14 | -0.556 ± 0.12
2 | UGUUAGCAAUAUUACGGCAA | -0.875 ± 0.15 | -0.17 ± 0.14
3 | UGUUAGCAAUAUUACGGGCG | -0.142 ± 0.11 | 0.388 ± 0.12
4 | UGUUAGCAAUAUUACGUCGG | -0.97 ± 0.1 | -0.8 ± 0.17
5 | UGUUAGCAAUAUUACGUGCC | -2.05 ± 0.17 | -0.583 ± 0.21
6 | UGUUAGCAAUAUUACGUGUC | -3.15 ± 0.33 | -1.48 ± 0.28
7 | UGUUAGCAAUAUUACGUUGC | -2.88 ± 0.24 | -1.62 ± 0.26
8 | UGUUAGCAAUAUUACGUUGG | -1.56 ± 0.11 | -1.26 ± 0.14
9 | UUAAAGCAAUAUUACGAUAA | 0.359 ± 0.084 | 0.431 ± 0.1
10 | UUAAAGCAAUAUUACGAUCC | -1.64 ± 0.18 | -0.49 ± 0.24
11 | UUAAAGCAAUAUUACGCAUU | -2.76 ± 0.15 | -2.86 ± 0.27
12 | UUAAAGCAAUAUUACGCCAA | 0.638 ± 0.29 | -0.283 ± 0.39
13 | UUAAAGCAAUAUUACGCCAG | 0.134 ± 0.17 | -1.25 ± 0.21
14 | UUAAAGCAAUAUUACGGAAU | -3.11 ± 0.17 | -1.73 ± 0.17
15 | UUAAAGCAAUAUUACGGAGC | -3.99 ± 0.28 | -0.662 ± 0.23
16 | UUAAAGCAAUAUUACGGAUC | -1.78 ± 0.24 | -0.2 ± 0.21
17 | UUAAAGCAAUAUUACGGGAA | -0.821 ± 0.088 | -0.351 ± 0.12
18 | UUAAAGCAAUAUUACGGGAU | -2.8 ± 0.14 | -0.86 ± 0.12
19 | UUAAAGCAAUAUUACGGUAA | -0.33 ± 0.076 | 0.503 ± 0.1

Row | Sequence | self-splicing fitness (ln) (30 °C) | self-splicing fitness (ln) (37 °C)
20 | UUAAAGCAAUAUUACGGUUA | 0.31 ± 0.069 | -0.0607 ± 0.072
21 | UUAAAGCAAUAUUACGUAAA | -1.16 ± 0.12 | -0.0909 ± 0.12
22 | UUAAAGCAAUAUUACGUAGA | -1.55 ± 0.099 | -0.654 ± 0.12
23 | UUAAAGCAAUAUUACGUAUG | -0.495 ± 0.068 | -0.0669 ± 0.097
24 | UUAAAGCAAUAUUACGUAUU | -3.28 ± 0.15 | -2.75 ± 0.2
25 | UUAAAGCAAUAUUACGUGAA | -1.8 ± 0.13 | -0.0245 ± 0.13
26 | UUAAAGCAAUAUUACGUGCG | -0.23 ± 0.058 | -0.242 ± 0.085
27 | UUAAAGCAAUAUUACGUGGC | -3.08 ± 0.15 | -2.98 ± 0.3
28 | UUAAAGCAAUAUUACGUUUA | -0.747 ± 0.068 | -0.409 ± 0.09
29 | UUACAGCAAUAUUACGAAAG | -2.87 ± 0.29 | -2.73 ± 0.33
30 | UUACAGCAAUAUUACGACUC | -2.69 ± 0.24 | -1.28 ± 0.2
31 | UUACAGCAAUAUUACGCAAG | -1.73 ± 0.1 | -0.345 ± 0.12
32 | UUACAGCAAUAUUACGCGAG | -1.02 ± 0.085 | -0.72 ± 0.08
33 | UUACAGCAAUAUUACGCGAU | -2.28 ± 0.18 | -1.75 ± 0.16
34 | UUACAGCAAUAUUACGCGGA | -1.6 ± 0.12 | -0.823 ± 0.095
35 | UUACAGCAAUAUUACGCUUA | -1.38 ± 0.11 | -0.114 ± 0.1
36 | UUACAGCAAUAUUACGCUUC | -3.13 ± 0.37 | -2.99 ± 0.47
37 | UUACAGCAAUAUUACGGACU | -2.05 ± 0.17 | -1.9 ± 0.17
